Measurements: patent publication US20250011363A1, “OPTIMIZED SHORTENED PEPTIDE THAT BINDS TO ACETYLCHOLINE RECEPTOR, AND USE THEREOF” (SKINMED CO., LTD., priority 2021, published 2025)

Target: acetylcholine receptor
Assay: SPR, AchR on chip, peptide 10 uM

Row | Binding affinity (RU) | Binder
1 | 84 | RVQSR [5mer-529]
2 | 84 | RVYYK [5mer-233]
3 | 70 | KSLLR [5mer-535]
4 | 70 | KSVQR [5mer-527]
5 | 50 | RVLLR [5mer-528]
6 | 84 | KGLTR [5mer-229]
7 | 60 | KGLLK [5mer-231]
8 | 53 | KRFLK [5mer-228]
9 | 75 | KQICK [5mer-532]
10 | 81 | KRRCK [5mer-236]
11 | 58 | KQVLK [5mer-238]
12 | 51 | KWRYR [5mer-240]
13 | 67 | KVLCR [5mer-230]
14 | 50 | RRQLR [5mer-534]
15 | 62 | RQYCR [5mer-234]
16 | 51 | KVRCR [5mer-241]

Row | Binding affinity (RU) | Binder
17 | 70 | RRILK [5mer-302]
18 | 70 | KGYSK [5mer-235]
19 | 77 | RGLRK [5mer-237]
20 | 61 | KRLYR [5mer-239]
21 | 78 | RLITK [5mer-536]
22 | 64 | KWIRK [5mer-301]
23 | 80 | RWRRR [5mer-530]
24 | 74 | RQFYR [5mer-540]
25 | 70 | RVVTR [5mer-539]
26 | 80 | KRISR [5mer-2]
27 | 84 | RLVYK [5mer-533]
28 | 65 | KRQSR [5mer-531]
29 | 71 | KWYTR [5mer-232]
30 | 59 | RLRLR [5mer-537]
31 | 72 | KQQQR [5mer-538]
